± gives the standard deviation of the averaged measurements.
The sequences below were run on ATP (assay: switch fluorescence ratio, 500 uM ATP over buffer (Cy3 cluster intensity, sum of 5 cycles each) (fold (ratio)); higher = stronger signal-on switching upon ATP binding; sequences stand for … in TCGTCGGCAGCGTCAGATGTGTATAAGAGACAGTTTTTTTTTTTTTTTTTTTTTTTTT…TC). Conditions: aptamer strand: ATP DNA aptamer (quencher-CACCTGGGGGAGTATTGCGGAGGAAGG + anchor), 100 nM annealed; ATP concentration: 500 uM.
Procedure, shortened: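 Exposure to 500 uM ATP lasted 15 min at 22 °C before imaging, and a selection-buffer image was taken beforehand, for Cy3-labelled switching-strand clusters on a modified Illumina MiSeq flow-cell annealed to 100 nM quencher-labelled ATP aptamer. Five buffer/ATP cycles were run with NaOH stripping and re-annealing between them. The fluorescence ratio per cluster is summed target-cycle over summed buffer-cycle Cy3 intensity, averaged per switch-domain sequence. Clusters outside 100-1000 RFU were excluded.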
CCGGTATTTG gave a switch fluorescence ratio of 1.021 ± 0.0077.
Work on ATCTGGAGTT yielded a switch fluorescence ratio of 1.01 ± 0.018.
TATGAATCAG was tested, and the switch fluorescence ratio was 0.998 ± 0.019.
CTAAAACTTG was tested, and the switch fluorescence ratio was 1.14 ± 0.13.
For ATGAGAATTT, the switch fluorescence ratio was 1.01 ± 0.049.
For GGCATATGCT, the switch fluorescence ratio was 1.02 ± 0.025.
With TACATGTCGG the switch fluorescence ratio was 1.01 ± 0.0022.
With ATCGTGAGGG the switch fluorescence ratio was 1 ± 0.053.
CGTGTGTATG gave a switch fluorescence ratio of 0.997 ± 0.0085.
TTGGGTTAAC was tested, and the switch fluorescence ratio was 0.9737 ± 0.006.
TTTTGGGGAG showed a switch fluorescence ratio of 1.02 ± 0.029.
With GAAATGTACG the switch fluorescence ratio was 1.04 ± 0.021.
Sequence TTATGGTGCA has a switch fluorescence ratio of 0.99 ± 0.023.
For AGCTGTCGCT, the switch fluorescence ratio was 1.01 ± 0.076.
Work on AGATTGAATG yielded a switch fluorescence ratio of 0.97975 ± 0.00032.
AGGGTGACAT was tested, and the switch fluorescence ratio was 0.999 ± 0.013.
With GTTTTTTTCG the switch fluorescence ratio was 0.9829 ± 0.007.
Work on AGAGTAAAGT yielded a switch fluorescence ratio of 0.98 ± 0.015.
Work on CCGTCATCTG yielded a switch fluorescence ratio of 1.04 ± 0.029.
Sequence TGTTACACCT has a switch fluorescence ratio of 1.23 ± 0.025.
In the case of GTTGTGATAG, the switch fluorescence ratio is reported as 1.01 ± 0.021.
For ACTGTTATGT, the switch fluorescence ratio was 1.07 ± 0.022.
In the case of ACGGTGCCAA, the switch fluorescence ratio is reported as 1.02 ± 0.034.
In the case of GACGATCCTG, the switch fluorescence ratio is reported as 1.08 ± 0.043.
TTTTGGATCG was tested, and the switch fluorescence ratio was 1 ± 0.012.
Work on AATAGCTAGT yielded a switch fluorescence ratio of 0.99272 ± 0.00015.
CAGGTATATG gave a switch fluorescence ratio of 1.01 ± 0.017.
AAATCATTAT was tested, and the switch fluorescence ratio was 1.01 ± 0.019.
TGAGGAGGG gave a switch fluorescence ratio of 0.97516 ± 0.00046.
GCGGGGTATG showed a switch fluorescence ratio of 0.9908 ± 0.008.
TGTGGCTATG gave a switch fluorescence ratio of 1.02 ± 0.014.
TTTGAATCTT was tested, and the switch fluorescence ratio was 1 ± 0.02.
With TTCTGGCAAT the switch fluorescence ratio was 2.97 ± 0.14.
With ATAAAGAATG the switch fluorescence ratio was 1.01 ± 0.05.
AATACGAGAG gave a switch fluorescence ratio of 1.03 ± 0.019.
Sequence GGATGGGGCG has a switch fluorescence ratio of 0.995 ± 0.027.
CAAAAGACGG gave a switch fluorescence ratio of 1.04 ± 0.02.
In the case of TGTTTTTTGT, the switch fluorescence ratio is reported as 0.992 ± 0.034.
In the case of GGGACAAACC, the switch fluorescence ratio is reported as 1.02 ± 0.019.
In the case of ATTTACGGGT, the switch fluorescence ratio is reported as 1.015 ± 0.0082.
Sequence GACCTTGTGC has a switch fluorescence ratio of 1.03 ± 0.042.
ATTATAGTAA gave a switch fluorescence ratio of 0.9886 ± 0.0022.
In the case of TTGAGTGTGT, the switch fluorescence ratio is reported as 0.9604 ± 0.0023.
With AGTATGGTTG the switch fluorescence ratio was 1 ± 0.02.
In the case of CTATTATAGT, the switch fluorescence ratio is reported as 0.9844 ± 0.0034.
GGCGATCATA was tested, and the switch fluorescence ratio was 0.984 ± 0.024.
GGGGAGGCAT showed a switch fluorescence ratio of 0.954 ± 0.027.
AATTAGGTGG was tested, and the switch fluorescence ratio was 1.01 ± 0.039.
CTCGTCAATT gave a switch fluorescence ratio of 1.52 ± 0.24.
Sequence AAGGGCCTTC has a switch fluorescence ratio of 1.025 ± 0.0071.
With GGCCGATTGT the switch fluorescence ratio was 0.962 ± 0.024.
With AGGGACGGTG the switch fluorescence ratio was 1 ± 0.056.
For ATGGTTTTTT, the switch fluorescence ratio was 1 ± 0.032.
ATTCATTATT gave a switch fluorescence ratio of 0.9927 ± 0.0049.
With TTTGACGGTG the switch fluorescence ratio was 1.01 ± 0.034.
In the case of CAAAGGACGG, the switch fluorescence ratio is reported as 1.25 ± 0.38.
Work on TGAGAATGTT yielded a switch fluorescence ratio of 1.09 ± 0.19.
Sequence AGTATTTGTG has a switch fluorescence ratio of 0.97 ± 0.035.
AAATGAAAGT showed a switch fluorescence ratio of 0.995 ± 0.015.
CGTTTGCAGT gave a switch fluorescence ratio of 1.02 ± 0.017.
Sequence CACGGATTCA has a switch fluorescence ratio of 0.988 ± 0.043.
For TACCAATAAG, the switch fluorescence ratio was 1.03 ± 0.044.
TCTATAATCG showed a switch fluorescence ratio of 0.977 ± 0.034.
In the case of GGGTTTTGGG, the switch fluorescence ratio is reported as 0.979 ± 0.064.
GTTTTTGCCA was tested, and the switch fluorescence ratio was 1.01 ± 0.016.
TAGAAAAGGT was tested, and the switch fluorescence ratio was 0.974 ± 0.028.
With TATGTCTACA the switch fluorescence ratio was 0.9859 ± 0.0075.
For CTATTTCTAC, the switch fluorescence ratio was 1.03 ± 0.046.
Sequence TAATTGTTAT has a switch fluorescence ratio of 0.986 ± 0.024.
In the case of GGGGAGTGAC, the switch fluorescence ratio is reported as 1.025 ± 0.0086.
Sequence CGTCTAAAC has a switch fluorescence ratio of 1.13 ± 0.021.
Work on TGAGGGTGTT yielded a switch fluorescence ratio of 0.998 ± 0.011.
Work on TGTTTGATTT yielded a switch fluorescence ratio of 0.975 ± 0.019.
Sequence TCTCAAGTGC has a switch fluorescence ratio of 1.118 ± 0.0083.
In the case of TGAATGGGGA, the switch fluorescence ratio is reported as 1.01 ± 0.029.
ATCGGTCATG showed a switch fluorescence ratio of 0.993 ± 0.013.
With GGGGGTGGTC the switch fluorescence ratio was 1.01 ± 0.04.
In the case of TAAATCCTTT, the switch fluorescence ratio is reported as 1 ± 0.053.
AGAGAGCCGT was tested, and the switch fluorescence ratio was 1.06 ± 0.031.
GGGTCCATGG was tested, and the switch fluorescence ratio was 0.985 ± 0.024.
For TGCTAATAGT, the switch fluorescence ratio was 1.028 ± 0.0074.
With TTCGGGGGTG the switch fluorescence ratio was 1.01 ± 0.031.
GATATTCCTG showed a switch fluorescence ratio of 1 ± 0.03.
With GGGGAGGTCG the switch fluorescence ratio was 1.03 ± 0.02.
GTCATTTGTA showed a switch fluorescence ratio of 0.9813 ± 0.0074.
With ATCTTTTTGT the switch fluorescence ratio was 1.014 ± 0.005.
Work on GGCGTCGTAT yielded a switch fluorescence ratio of 0.9961 ± 0.0015.
For GAAGGAAGTT, the switch fluorescence ratio was 1.01 ± 0.041.
In the case of ATCGACGGG, the switch fluorescence ratio is reported as 1.008 ± 0.0058.
TATTAATCGG was tested, and the switch fluorescence ratio was 0.97 ± 0.056.
Work on GAAGGGGTGA yielded a switch fluorescence ratio of 1.03 ± 0.053.
GGGATGGATT gave a switch fluorescence ratio of 0.969 ± 0.047.
With GTTTGCGTTA the switch fluorescence ratio was 0.962 ± 0.05.
CCAGAAGTGA gave a switch fluorescence ratio of 1.08 ± 0.018.
In the case of CTGGGGAAAG, the switch fluorescence ratio is reported as 1.02 ± 0.033.
With CATACTTTTT the switch fluorescence ratio was 1.02 ± 0.018.
With ACATCCGGAC the switch fluorescence ratio was 1.343 ± 0.011.
Work on TCGCTGAGG yielded a switch fluorescence ratio of 0.9921 ± 0.00077.
Work on AACTGTAGAC yielded a switch fluorescence ratio of 1.121 ± 0.0022.
With GCTCTTGTCT the switch fluorescence ratio was 0.985 ± 0.061.
Work on CTTCAAAAGG yielded a switch fluorescence ratio of 1.68 ± 0.96.
For TTGCATGGGA, the switch fluorescence ratio was 0.992 ± 0.018.
Sequence ATGGAGGCTT has a switch fluorescence ratio of 0.975 ± 0.018.
AAGCAAATCT gave a switch fluorescence ratio of 1.18 ± 0.04.
Sequence TCTGGATATT has a switch fluorescence ratio of 1.01 ± 0.025.
For TACTTAAGTG, the switch fluorescence ratio was 1.02 ± 0.047.
AATTTTGGAC was tested, and the switch fluorescence ratio was 1.01 ± 0.017.
With GGGGTTCGCG the switch fluorescence ratio was 1.004 ± 0.0048.
GGATGAGGCA showed a switch fluorescence ratio of 1.02 ± 0.022.
In the case of TTGGAGGGGG, the switch fluorescence ratio is reported as 1.01 ± 0.039.
Sequence TGTCAGTCGA has a switch fluorescence ratio of 1.002 ± 0.0036.
With GGAGCTGCGT the switch fluorescence ratio was 1.056 ± 0.0098.
Work on CTGCCAATGG yielded a switch fluorescence ratio of 1.99 ± 0.053.
Work on TTAGGATAT yielded a switch fluorescence ratio of 1.02 ± 0.041.
ATGCAGGTCC showed a switch fluorescence ratio of 1.03 ± 0.037.
TCGTTAGAAT showed a switch fluorescence ratio of 0.948 ± 0.013.
Sequence CGAGCTGCAT has a switch fluorescence ratio of 1.08 ± 0.011.
Work on ATCAAGTCTG yielded a switch fluorescence ratio of 0.9898 ± 0.0028.
TTATTTGACT showed a switch fluorescence ratio of 1.01 ± 0.041.
GGGCCGTTTG was tested, and the switch fluorescence ratio was 1.002 ± 0.0047.
Work on ATCGGTGTGC yielded a switch fluorescence ratio of 0.981 ± 0.069.
In the case of ACTCCGGGGA, the switch fluorescence ratio is reported as 2.4 ± 0.42.
With TTCCGGAGAT the switch fluorescence ratio was 1.43 ± 0.34.
Sequence TTGGGGCAGC has a switch fluorescence ratio of 0.995 ± 0.013.
GATGCTCGAG was tested, and the switch fluorescence ratio was 1 ± 0.016.
GCGGGCTGAA was tested, and the switch fluorescence ratio was 0.962 ± 0.014.
Sequence TTAACTAGGC has a switch fluorescence ratio of 0.989 ± 0.054.
For GGATTCAGGG, the switch fluorescence ratio was 1.01 ± 0.018.
TGAGAGTCAG was tested, and the switch fluorescence ratio was 0.986 ± 0.017.
Sequence TAGCGGGGGG has a switch fluorescence ratio of 1.02 ± 0.046.
TCAATGTAGT was tested, and the switch fluorescence ratio was 1 ± 0.058.
In the case of AGTGGTTGTA, the switch fluorescence ratio is reported as 0.997 ± 0.024.
Sequence ATGAAAGGGA has a switch fluorescence ratio of 1.02 ± 0.042.
AGTTTTATTG showed a switch fluorescence ratio of 0.993 ± 0.026.
For TGCGTCTTTG, the switch fluorescence ratio was 1.01 ± 0.034.
With ACTCTTTATA the switch fluorescence ratio was 1.04 ± 0.035.
CTCGTGTGTG was tested, and the switch fluorescence ratio was 1.044 ± 0.0073.
Work on CCATGTCGTA yielded a switch fluorescence ratio of 0.995 ± 0.016.
CTCGATAGGA gave a switch fluorescence ratio of 1.02 ± 0.0083.
Work on TTAATTTGAA yielded a switch fluorescence ratio of 0.997 ± 0.013.
With TCGGAGAAGG the switch fluorescence ratio was 1.02 ± 0.064.
Sequence TAATCACGAA has a switch fluorescence ratio of 1.036 ± 0.0039.
Sequence GCATTGGGTG has a switch fluorescence ratio of 1.11 ± 0.054.
In the case of TGAAAATAGT, the switch fluorescence ratio is reported as 0.965 ± 0.029.
With GAAGCAACCG the switch fluorescence ratio was 1.384 ± 0.01.
Sequence GATTTGTTTT has a switch fluorescence ratio of 0.994 ± 0.013.
GTTCGTTTTG gave a switch fluorescence ratio of 0.975 ± 0.035.
AGAAGTCGCG showed a switch fluorescence ratio of 0.9551 ± 0.0013.
Sequence TTGATAAAAA has a switch fluorescence ratio of 0.998 ± 0.083.
CCTCCAGGGT was tested, and the switch fluorescence ratio was 2.5 ± 0.92.
GAGAGGGTTG showed a switch fluorescence ratio of 0.971 ± 0.033.
Sequence TTAGTTAAAG has a switch fluorescence ratio of 1 ± 0.014.
Sequence GGGGTAGCGT has a switch fluorescence ratio of 0.99 ± 0.03.
In the case of AAATGTTTTG, the switch fluorescence ratio is reported as 1.03 ± 0.026.
TCTGGAAGGT was tested, and the switch fluorescence ratio was 1.04 ± 0.053.
TGTGGATGGT gave a switch fluorescence ratio of 0.956 ± 0.019.
Work on TTGGGACAGC yielded a switch fluorescence ratio of 1.003 ± 0.0014.

— the supplement of paper PMC10126150
